Like-named read-outs stand apart in the source and are kept apart here.
How the values were obtained:
Test in all cases: MHC class I stabilization on T2-A24 cells, flow cytometry, 100 ug/mL peptide
HLA-A*24:02 [1] = target: T1, HLA-A*24:02 (human)
T1 construct: whole, on cells; MHC class I molecule, empty until peptide is added; detected with FITC anti-HLA-A24 antibody 17A10

HLA-A*02:01 [2] = target: T2, HLA-A*02:01 (human)
T2 construct: whole, on cells; MHC class I molecule, empty until peptide is added; detected with FITC anti-HLA-A02 antibody BB7.2

HLA-A*24:02 [3] = target: T1, HLA-A*24:02; remark: listed apart in the source
HLA-A*02:01 [4] = target: T2, HLA-A*02:01; remark: listed apart in the source

| Binder | MFI (solvent ratio) (HLA-A*24:02 [1]) | MFI (solvent ratio) (HLA-A*02:01 [2]) | MFI (solvent ratio) (HLA-A*24:02 [3]) | MFI (solvent ratio) (HLA-A*02:01 [4]) |
| --- | --- | --- | --- | --- |
| SYMWSFEKAHL [FAM83B-derived peptide F245_11] | ≥ 1.5 ratio to solvent | ≥ 1.5 ratio to solvent | 2.9 ratio to solvent | 1.5 ratio to solvent |
| KPLPESIPKL [FAM83B-derived peptide F593_10] | ≥ 1.5 ratio to solvent | ≥ 1.5 ratio to solvent | 3.5 ratio to solvent | 1.9 ratio to solvent |
| RFLQQRMPTL [FAM83B-derived peptide F475_10] | ≥ 1.5 ratio to solvent | ≥ 1.5 ratio to solvent | 3 ratio to solvent | 1.9 ratio to solvent |
